Source: paper PMC7074700

Target: Helicobacter pylori CbpA, wild type, carboxyl-terminal His-tagged (H. pylori (strain G27))
Assay: cross-linking; 5 uM purified protein with 0, 0.0025, 0.005 and 0.01% glutaraldehyde in 1x binding buffer (10 mM Tris-HCl pH 8.0, 50 mM NaCl, 10 mM KCl, 5 mM MgCl2, 0.1 mM DTT, 0.01% NP40), 1 hour at 25 °C; SDS-PAGE, Coomassie staining

stoichiometry N: 2
Substance: Helicobacter pylori CbpA, wild type, carboxyl-terminal His-tagged (natural protein)
